No end group written: not given here. *: point of attachment. Biotin = O=C1N[C@H]2[C@H](CS[C@H]2CCCCC(=O)*)N1

Experiment in all cases: G assays, titrations or binding assays of peptides
One experiment concerns the target T1, INADL d3 (Homo sapiens, UniProt Q8NI35).
T1 construct: made in house; host or cells: E. coli (DH5α, BL21 or JM109)
T1 sequence (Q8NI35 with tags, fused parts or gaps): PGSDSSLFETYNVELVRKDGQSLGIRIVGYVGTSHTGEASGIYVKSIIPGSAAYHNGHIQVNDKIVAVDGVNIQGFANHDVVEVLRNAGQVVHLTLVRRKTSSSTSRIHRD
The settings on record: peptide demonstrated to bind INADL d3 in G assays.

A further experiment has as its target T2, PAR3 d3 (Homo sapiens, UniProt Q8TEW0, R682S).
T2 construct: made in house; host or cells: E. coli (DH5α, BL21 or JM109)
The settings on record: peptide demonstrated to bind PAR3 d3 in G assays.

The target in a further experiment is T3, RIM2 d1 (Homo sapiens, UniProt Q9UQ26).
T3 construct: made in house; host or cells: E. coli (DH5α, BL21 or JM109)
T3 sequence (Q9UQ26 632-757): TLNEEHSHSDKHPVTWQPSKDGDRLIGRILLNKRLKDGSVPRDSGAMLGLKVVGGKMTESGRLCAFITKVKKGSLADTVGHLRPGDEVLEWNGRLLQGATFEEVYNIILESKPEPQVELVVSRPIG
The settings on record: peptide demonstrated to bind RIM2 d1 in G assays.

The next experiment has as its target T4, Syntrophin 1 alpha d1 (Homo sapiens, UniProt Q13424).
T4 construct: made in house; host or cells: E. coli (DH5α, BL21 or JM109)
T4 sequence (Q13424 84-177): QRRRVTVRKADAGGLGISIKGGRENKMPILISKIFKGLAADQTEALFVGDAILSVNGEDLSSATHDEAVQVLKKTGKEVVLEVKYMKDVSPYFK
As to conditions: peptide demonstrated to bind syntrophin 1 alpha d1 in G assays. As to the method:
In one aspect, the invention provides an assay in which a GST/PDZ fusion protein is immobilized on a surface (G assay). The binding of labeled PL peptide (e.g., as listed in TABLE 2 and TABLE 4) to this surface is then measured. In a preferred embodiment, the assay is carried out as follows:
(1) A PDZ-domain polypeptide is bound to a surface, e.g. a protein binding surface. In a preferred embodiment, a GST/PDZ fusion protein containing one or more PDZ domains is bound to a polystyrene 96-well plate. […] In one embodiment, the GST/PDZ fusion protein is bound via an anti-GST antibody that is coated onto the 96-well plate. Adequate binding to the plate can be achieved when: • a. 100 μl per well of 5 μg/ml goat anti-GST polyclonal antibody (Pierce) in PBS is added to a polystyrene 96-well plate (e.g., Nunc Polysorp) at 4° C. for 12 hours. • b. The plate is blocked by addition of 200 μl per well of PBS/BSA for 2 hours at 4° C. • c. The plate is washed 3 times with PBS. • d. 50 μl per well of 5 μg/ml GST/PDZ fusion protein) or, as a negative control, GST polypeptide alone (i.e. not a fusion protein) in PBS/BSA is added to the plate for 2 hours at 4° C. • e. the plate is again washed 3 times with PBS.
(2) Biotinylated PL peptides are allowed to react with the surface by addition of 50 μl per well of 20 μM solution of the biotinylated peptide in PBS/BSA for 10 minutes at 4° C., followed by an additional 20 minute incubation at 25° C. The plate is washed 3 times with ice cold PBS.
(3) The binding of the biotinylated peptide to the GST/PDZ fusion protein surface can be detected using a variety of methods and detectors known to one of skill in the art. In one embodiment, 100 μl per well of 0.5 μg/ml streptavidin-horseradish peroxidase (HRP) conjugate dissolved in BSA/PBS is added and allowed to react for 20 minutes at 4° C. The plate is then washed 5 times with 50 mM Tris pH 8.0 containing 0.2% Tween 20, and developed by addition of 100 μl per well of HRP-substrate solution (TMB, Dako) for 20 minutes at room temperature (RT). The reaction of the HRP and its substrate is terminated by addition of 100 μl per well of 1 M sulfuric acid, and the optical density (O.D.) of each well of the plate is read at […].
(4) Specific binding of a PL peptide and a PDZ domain polypeptide is determined by comparing the signal from the well(s) in which the PL peptide and PDZ domain polypeptide are combined, with the background signal(s). The background signal is the signal found in the negative control(s). Typically a specific or selective reaction will be at least twice background signal, more typically more than 5 times background, and most typically 10 or more times the background signal. In addition, a statistically significant reaction will involve multiple measurements of the reaction with the signal and the background differing by at least two standard errors, more typically four standard errors, and most typically six or more standard errors. Correspondingly, a statistical test (e.g. a T-test) comparing repeated measurements of the signal with repeated measurements of the background will result in a p-value <0.05, more typically a p-value <0.01, and most typically a p-value <0.001 or less. As noted, in an embodiment of the G assay, the signal from binding of a given PL peptide to immobilized (surface bound) GST polypeptide alone is one suitable negative control (sometimes referred to as B1). Because all measurement are done in multiples (i.e. at least duplicate) the arithmetic mean (or, equivalently, average.) of several measurements is used in determining the binding, and the standard error of the mean is used in determining the probable error in the measurement of the binding. The standard error of the mean of N measurements equals the square root of the following: the sum of the squares of the difference between each measurement and the mean, divided by the product of (N) and (N−1). […]

The target of the next experiment is T5, ZO-1 d2 (Homo sapiens, UniProt Q07157, DEL264-264).
T5 construct: made in house; host or cells: E. coli (DH5α, BL21 or JM109)
T5 sequence (Q07157 with tags, fused parts or gaps DEL264-264): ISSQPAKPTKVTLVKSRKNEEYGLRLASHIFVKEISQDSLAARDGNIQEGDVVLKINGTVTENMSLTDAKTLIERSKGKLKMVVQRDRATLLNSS
The settings on record: peptide demonstrated to bind ZO-1 d2 in G assays.

T2 sequence (Q8TEW0 with tags, fused parts or gaps R682S): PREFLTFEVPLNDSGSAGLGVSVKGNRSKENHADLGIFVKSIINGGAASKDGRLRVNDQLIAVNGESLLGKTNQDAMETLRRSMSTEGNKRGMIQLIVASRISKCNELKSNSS
Experimental for PAR3 d3: (§1) In one aspect, the invention provides an assay in which a GST/PDZ fusion protein is immobilized on a surface (G assay). […] In a preferred embodiment, the assay is carried out as follows:
(§2) (3) The binding of the biotinylated peptide to the GST/PDZ fusion protein surface can be detected using a variety of methods and detectors known to one of skill in the art. In one embodiment, 100 μl per well of 0.5 μg/ml streptavidin-horseradish peroxidase (HRP) conjugate dissolved in BSA/PBS is added and allowed to react for 20 minutes at 4° C. The plate is then washed 5 times with 50 mM Tris pH 8.0 containing 0.2% Tween 20, and developed by addition of 100 μl per well of HRP-substrate solution (TMB, Dako) for 20 minutes at room temperature (RT). The reaction of the HRP and its substrate is terminated by addition of 100 μl per well of 1 M sulfuric acid, and the optical density (O.D.) of each well of the plate is read at 450 um.
(§3) (4) Specific binding of a PL peptide and a PDZ domain polypeptide is determined by comparing the signal from the well(s) in which the PL peptide and PDZ domain polypeptide are combined, with the background signal(s). […] Typically a specific or selective reaction will be at least twice background signal, more typically more than 5 times background, and most typically 10 or more times the background signal. […] Correspondingly, a statistical test (e.g. a T-test) comparing repeated measurements of the signal with repeated measurements of the background will result in a p-value <0.05, more typically a p-value <0.01, and most typically a p-value <0.001 or less. As noted, in an embodiment of the G assay, the signal from binding of a given PL peptide to immobilized (surface bound) GST polypeptide alone is one suitable negative control (sometimes referred to as B1). Because all measurement are done in multiples (i.e. at least duplicate) the arithmetic mean (or, equivalently, average.) of several measurements is used in determining the binding, and the standard error of the mean is used in determining the probable error in the measurement of the binding. The standard error of the mean of N measurements equals the square root of the following: the sum of the squares of the difference between each measurement and the mean, divided by the product of (N) and (N−1). Thus, in one embodiment, specific binding of the PDZ protein to the platebound peptide is determined by comparing the mean signal (“mean S”) and standard error of the signal (“SE”) for a particular PL-PDZ combination with the mean B1.
Experimental for RIM2 d1: as §1, §2, §3
Experimental for ZO-1 d2: as §1, §2, §3

Take “HHLVAQRDIRQFQLQHWLAI (Biotin-HHLVAQRDIRQFQLQHWLAI)”: the POZ domain bound result in the experiment with INADL d3 is reported as “INADL D3”; with PAR3 d3, “PAR3 D3”; in the experiment with RIM2 d1, “RIM2 D1”; in the experiment with Syntrophin 1 alpha d1, “Syntrophin 1 alpha D1”; with ZO-1 d2 it was “ZO-1 D2”.

On to “LAVLAYSITLVMLWSIWQYA (Biotin-LAVLAYSITLVMLWSIWQYA)”, for which the POZ domain bound result in the experiment with INADL d3 is on record as “INADL D3”; with PAR3 d3, “PAR3 D3”; with RIM2 d1 it was “RIM2 D1”; with Syntrophin 1 alpha d1 it was “Syntrophin 1 alpha D1”; with ZO-1 d2 it was “ZO-1 D2”.

For “HDFRRAFKKILARGDRKRIV (Biotin-HDFRRAFKKILARGDRKRIV)”, the POZ domain bound entry is recorded as “INADL D3” with INADL d3; “PAR3 D3” with PAR3 d3; “RIM2 D1” with RIM2 d1; “Syntrophin 1 alpha D1” in the experiment with Syntrophin 1 alpha d1; “ZO-1 D2” with ZO-1 d2.

The record behind these values is patent US7858322B2, “Method of determining inhibition of binding to TRPM7 protein” (NoNo, Inc., priority 2003, dated 2010).
